These are literature values, as cited in patent publication US20240117402A1, “METHODS FOR (POLY) PEPTIDE TANDEM LIGATION AND CYCLIZATION” (Nanyang Technological University, priority 2021, published 2024).

The conditions of this data set: cyclization of a model peptide; cited from earlier work.

B1: VyPAL2: plant legumain from the Viola Yedoensis family, highly active peptidyl asparaginyl ligase (SEQ ID NO:1) (protein)
chain: DSIGTRWAVLIAGSKGYHNYRHQADVCHMYQILRKGGVKDENIIVFMYDDIAYNESNPFPGIIINKPGGENVYKGVPKDYTGEDINNVNFLAAILGNKSAIIGGSGKVLDTSPNDHIFIYYADHGAPGKIGMPSKPYLYADDLVDTLKQKAATGTYKSMVFYVEACNAGSMFEGLLPEGTNIYAMAASNSTEGSWITYCPGTPDFPPEFDVCLGDLWSITFLEDCDAHNLRTETVHQQFELVKKKIAYASTVSQYGDIPISKDSLSVYM
modifications: VyPAL2 core domain
For B1, the catalytic efficiency is listed as 274,325 M^−1 s^−1.
